Laboratory results from the RNAGym collection of RNA variant scans (doi:10.7554/elife.90254).

B1: LINE1-full (parent)
chain: UACGUAGGUGGUUUUCCCCUGAUAGUGCUAAGGGGGCCUGGAAGUUUGGACUGGGCAGAGCUCAACACAGCGUGGCAAAGUGGCUGUGGCUAGACUGCCUCUCUGGAUUCCUCGUCACUCAGCAGGGCAUCUCUGAGAGAAAUGCC

Variants of: B1
Assay: self-cleavage, relative activity (ratio to wild type); higher = more cleavage; in vitro, sequencing; the parent is a self-cleaving ribozyme
For A2G A129G, the self-cleavage was 0.46.
Work on A2G A136G yielded a self-cleavage of 0.82.
Variant A2G A140G has a self-cleavage of 0.94.
Variant A2G A141G has a self-cleavage of 0.78.
Variant A2G C17A has a self-cleavage of 1.56.
A2G C19U showed a self-cleavage of 0.56.
In the case of A2G C37U, the self-cleavage is reported as 0.89.
With A2G C38A the self-cleavage was 1.05.
With A2G C66U the self-cleavage was 0.4.
In the case of A2G C71U, the self-cleavage is reported as 0.7.
A2G C76U gave a self-cleavage of 1.17.
In the case of A2G C84A, the self-cleavage is reported as 0.26.
For A2G C90U, the self-cleavage was 0.15.
A2G C118G gave a self-cleavage of 1.04.
For A2G G21C, the self-cleavage was 1.04.
In the case of A2G G27A, the self-cleavage is reported as 0.19.
For A2G G36A, the self-cleavage was 0.7.
For A2G G53A, the self-cleavage was 0.74.
Variant A2G G54A has a self-cleavage of 0.27.
For A2G G55A, the self-cleavage was 0.2.
A2G G55U showed a self-cleavage of 0.49.
A2G G93A gave a self-cleavage of 0.1.
For A2G G105A, the self-cleavage was 1.27.
Work on A2G G105U yielded a self-cleavage of 1.3.
With A2G G137A the self-cleavage was 0.61.
With A2G U5A the self-cleavage was 0.42.
A2G U9A gave a self-cleavage of 0.56.
For A2G U12G, the self-cleavage was 0.95.
With A2G U13A the self-cleavage was 0.99.
In the case of A2G U13C, the self-cleavage is reported as 0.64.
With A2G U14C the self-cleavage was 0.93.
For A2G U15G, the self-cleavage was 0.99.
Work on A2G U26G yielded a self-cleavage of 0.21.
Variant A2G U29C has a self-cleavage of 0.81.
With A2G U39A the self-cleavage was 0.89.
Work on A2G U45A yielded a self-cleavage of 0.63.
In the case of A2G U47C, the self-cleavage is reported as 0.84.
In the case of A2G U52A, the self-cleavage is reported as 1.11.
A2G U62A showed a self-cleavage of 0.09.
A2G U62C gave a self-cleavage of 0.09.
For A2G U73C, the self-cleavage was 0.81.
With A2G U81C the self-cleavage was 1.14.
A2G U85A showed a self-cleavage of 0.25.
Work on A2G U87A yielded a self-cleavage of 0.32.
A2G U96C showed a self-cleavage of 0.22.
A2G U96G gave a self-cleavage of 0.12.
Variant A2G U102C has a self-cleavage of 1.2.
In the case of A2G U104A, the self-cleavage is reported as 0.95.
With A2G U109C the self-cleavage was 1.39.
Variant A2G U112C has a self-cleavage of 0.87.
For A2G U115C, the self-cleavage was 1.43.
For A2G U119A, the self-cleavage was 0.96.
With A2G U119C the self-cleavage was 1.32.
With A2G U130C the self-cleavage was 0.56.
A2G U132G gave a self-cleavage of 1.6.
A2G U134A gave a self-cleavage of 1.38.
In the case of A2G U143A, the self-cleavage is reported as 0.99.
Work on A2G U143C yielded a self-cleavage of 1.2.
A2U gave a self-cleavage of 0.98.
Variant A2U A43G has a self-cleavage of 1.07.
In the case of A2U A59G, the self-cleavage is reported as 0.
With A2U A64U the self-cleavage was 0.37.
With A2U A67G the self-cleavage was 0.61.
Variant A2U A79G has a self-cleavage of 1.45.
For A2U A121G, the self-cleavage was 1.53.
With A2U A129U the self-cleavage was 0.75.
Variant A2U A138G has a self-cleavage of 1.06.
In the case of A2U A141G, the self-cleavage is reported as 1.
In the case of A2U A142C, the self-cleavage is reported as 1.09.
Work on A2U C56A yielded a self-cleavage of 0.03.
For A2U U9A, the self-cleavage was 0.86.
Variant A2U U9C has a self-cleavage of 0.7.
A2U U12A showed a self-cleavage of 0.31.
A2U U15G showed a self-cleavage of 0.51.
In the case of A2U U23C, the self-cleavage is reported as 0.
In the case of A2U U46C, the self-cleavage is reported as 1.76.
With A2U U47A the self-cleavage was 0.85.
A2U U52C showed a self-cleavage of 0.67.
A2U U73A showed a self-cleavage of 0.45.
Work on A2U U73C yielded a self-cleavage of 0.56.
Variant A2U U81A has a self-cleavage of 1.38.
In the case of A2U U85G, the self-cleavage is reported as 0.14.
Work on A2U U87A yielded a self-cleavage of 0.08.
Variant A2U U104A has a self-cleavage of 0.26.
Work on A2U U115A yielded a self-cleavage of 0.77.
In the case of A2U U119C, the self-cleavage is reported as 1.26.
Variant A2U U130C has a self-cleavage of 0.32.
In the case of A2U U143A, the self-cleavage is reported as 1.
C3A A30G showed a self-cleavage of 1.39.
C3A A31G gave a self-cleavage of 0.87.
C3A A64G gave a self-cleavage of 0.
In the case of C3A A65G, the self-cleavage is reported as 0.29.
Variant C3A A67G has a self-cleavage of 0.56.
With C3A A69G the self-cleavage was 0.31.
Work on C3A A94G yielded a self-cleavage of 0.3.
Variant C3A A121U has a self-cleavage of 0.58.
C3A A124U gave a self-cleavage of 0.6.
C3A A129G showed a self-cleavage of 0.88.
Work on C3A A138G yielded a self-cleavage of 0.92.
C3A C98A showed a self-cleavage of 0.28.
For C3A G32A, the self-cleavage was 0.88.
In the case of C3A G72A, the self-cleavage is reported as 0.38.
For C3A G127A, the self-cleavage was 0.43.
Variant C3A U9C has a self-cleavage of 1.11.
With C3A U12G the self-cleavage was 0.81.
C3A U13C showed a self-cleavage of 1.15.
With C3A U39A the self-cleavage was 0.96.
C3A U85A showed a self-cleavage of 0.13.
Variant C3A U96C has a self-cleavage of 0.2.
C3A U109C showed a self-cleavage of 0.53.
Work on C3A U115C yielded a self-cleavage of 1.22.
In the case of C3G A31U, the self-cleavage is reported as 0.98.
Work on C3G A50U yielded a self-cleavage of 0.16.
For C3G A69U, the self-cleavage was 0.11.
Work on C3G A78G yielded a self-cleavage of 0.6.
In the case of C3G A79G, the self-cleavage is reported as 1.04.
For C3G A141G, the self-cleavage was 0.66.
For C3G U52A, the self-cleavage was 0.8.
Work on C3G U81C yielded a self-cleavage of 0.75.
Work on C3U A24U yielded a self-cleavage of 1.15.
C3U A31U showed a self-cleavage of 0.37.
C3U A50G gave a self-cleavage of 0.33.
With C3U A57U the self-cleavage was 0.17.
C3U A59U gave a self-cleavage of 0.56.
Work on C3U A64G yielded a self-cleavage of 0.21.
C3U A67G gave a self-cleavage of 0.
With C3U A69G the self-cleavage was 0.53.
Work on C3U A77G yielded a self-cleavage of 0.71.
In the case of C3U A77U, the self-cleavage is reported as 0.
C3U A117C gave a self-cleavage of 0.75.
Work on C3U A117G yielded a self-cleavage of 0.45.
Work on C3U A117U yielded a self-cleavage of 1.31.
Variant C3U A124U has a self-cleavage of 1.
C3U A129G gave a self-cleavage of 1.62.
For C3U A140G, the self-cleavage was 0.97.
Work on C3U A142G yielded a self-cleavage of 0.47.
For C3U C118U, the self-cleavage was 1.25.
In the case of C3U C123U, the self-cleavage is reported as 0.63.
C3U C131U showed a self-cleavage of 1.02.
With C3U G8C the self-cleavage was 0.53.
With C3U G72A the self-cleavage was 0.05.
C3U G82U showed a self-cleavage of 0.88.
For C3U G127A, the self-cleavage was 0.89.
In the case of C3U U9A, the self-cleavage is reported as 0.84.
Variant C3U U12C has a self-cleavage of 0.57.
C3U U12G gave a self-cleavage of 1.13.
C3U U13C gave a self-cleavage of 0.74.
For C3U U14A, the self-cleavage was 0.24.
With C3U U15C the self-cleavage was 0.45.
C3U U20A showed a self-cleavage of 0.83.
Work on C3U U20G yielded a self-cleavage of 0.53.
For C3U U23A, the self-cleavage was 0.71.
With C3U U26A the self-cleavage was 1.04.
C3U U26C showed a self-cleavage of 1.01.
C3U U26G gave a self-cleavage of 0.87.
C3U U39C gave a self-cleavage of 0.79.
C3U U45A showed a self-cleavage of 0.93.
C3U U45C showed a self-cleavage of 0.8.
C3U U52C showed a self-cleavage of 1.31.
Work on C3U U62A yielded a self-cleavage of 0.2.
With C3U U62G the self-cleavage was 0.07.
C3U U73A gave a self-cleavage of 0.91.
C3U U73C showed a self-cleavage of 1.49.
Variant C3U U87A has a self-cleavage of 0.18.
For C3U U87C, the self-cleavage was 0.12.
C3U U96C showed a self-cleavage of 0.
Variant C3U U102A has a self-cleavage of 1.1.
